From the Human Domainome abundance scans (Beltran et al. 2025)

B1: KAT8 regulatory NSL complex subunit 2, residues 28 to 91; numbered along this chain, Q9H9L4 (parent)
chain: CAFTHRPCSHPRLEGQEFCIKHILEDKNAPFKQCSYISTKNGKRCPNAAPKPEKKDGVSFCAEH

Variants of: B1
Assay: abundance fitness (aPCA) (normalised: wild type 0, dead -1); higher = more abundant; growth selection in yeast, the domain comes from the species named
Conditions: Homo sapiens

Abundance fitness: each site, then its substitutions
C8: G -0.742; N -0.641; M -0.937
P11: N -0.282; I -0.298; W -0.555; G -0.133; C -0.296; S -0.162; V -0.197; D -0.068; H -0.234; R -0.092; M -0.092; E -0.004; L -0.18; K -0.067; A -0.032
K21: E -0.085; G -0.121; V -0.117; S -0.125; A -0.057; R -0.058; P -0.904; C -0.119; F 0.048; D -0.149; Y -0.227; L -0.127; H -0.005; I -0.251; T -0.157; N -0.125; M -0.159; W -0.173; Q -0.117
R6: Y -0.06; S -0.055; W -0.118; K -0.032; N -0.133; V -0.081; Q -0.072; P -0.047; T -0.088
F18: H -0.454; I -0.678; S -0.59; Y -0.11; E -0.622; M -0.196; W -0.356; V -0.509; N -0.61; Q -0.642; T -0.408; R -0.325; L -0.139; G -0.563; A -0.572; C -0.334; K -0.472; D -0.547
C19: F -1.16; P -0.809; Y -1.38; G -0.941; H -1.63; T -0.908; S -0.851; E -1; N -1.27; K -0.572; M -1.08; D -0.994; I -1.19; W -1.28; R -1.17; Q -0.878; A -0.973
E17: L -0.116; W -0.26; I -0.036; T -0.051; M -0.041; G -0.252; K -0.15; D -0.098; Y -0.106; S -0.105; R -0.216; A -0.207; C -0.112; V -0.102; P -0.137; F -0.19; Q -0.077; H -0.129; N -0.023
H22: S -0.729; G -0.789; I -1.41; D -0.904; N -0.768; K -0.678; F -1.81; W -1.4; V -1.36; R -0.812; C -0.383; T -0.877; Y -1.07; M -1.16; A -0.769; L -1.34; Q -0.506
G15: H -0.263; Y -0.706; E -0.219; P -0.543; F -0.406; D -0.127; V -0.972; N -0.134; T -0.428; W -0.592; M -0.199; R -0.228; Q -0.134; A -0.284; C -0.403
E14: W -0.396; A -0.107; F -0.252; T -0.129; I -0.219; V -0.098; N -0.334; P -0.141; H -0.262; D -0.152; S -0.147; Q -0.155; R -0.258; L -0.12; C -0.168; M -0.034
L13: N -0.53; H -0.215; W -0.315; Y -0.277; F -0.324; V -0.127; Q -0.176; P -0.86; K -0.24; R -0.465; I -0.145; T -0.308; E -0.334; C -0.365; D -0.501; G -0.423; M -0.048; A -0.187; S -0.331
